Source: publication PMC2629542

Target: DraE R86G (E. coli)
Experiment: SPR

With N-domain of CEA (domain or fragment) the fold decrease in affinity against DraE was greater than 7 fold.
